# Experiment: soluble on expression in E. coli; label from the status in PepcDB or PDB records
row,Sequence,soluble on expression in E. coli
1,MSNMEPPPPMFPRSRIYHSYYSEEKTFSAPSANSQQGTQLPSKVYNKGLKDNDIEGLLSSLSIDELEDLNNDFDPDNSMLPPSQRCRDQTDKEPTGPYKRDNLLKFLEDKAKTEKDWEDVCPYTPGQKRGKVYDSDSGRNSEEPENGKMEMPIEIDLDDDEEELECALVTAPEKDLVDLAGILGMHNVLNQPQYYNALKGKTQDESTGTTFNGIMQSYVPRIVPDEPDNDTDVESCINRLREDDTDLKEVNINNMKRVSKERIRSLIEAACNSKHIEKFSLANTAISDSEARGLIELIETSPSLRVLNVESNFLTPELLARLLRSTLVTQSIVEFKADNQRQSVLGNQVEMDMMMAIEENESLLRVGISFASMEARHRVSEALERNYERVRLRRLGKDPNV,soluble
2,MKTITLRPGQMTLADLRHIYQHPVHITLDESAYVPIQQSVDCVQAILAEQRTAYGINTGFGLLASTRIATEDLENLQRSIVLSHAAGVGEANDDAIVRLIMVLKINSLARGFSGIRLEVIQALITLVNAGVYPHIPLKGSVGASGDLAPLAHMSLLLLGEGKARYQGEWLPAHTALAQAGLQPLTLAAKEGLALLNGTQVSAAYALRGLFEAEDLYAAASVFGCLTVDAALGSRSPFDARIHAVRGQRGQIDAASTYRHLLGERSEISESHKNCDKVQDPYSLRCQPQVMGACLGQIRQAAEVLAIESNAVSDNPLVFAEQGDVLSGGNFHAEPVAMAADNLALALAEVGSLSECRISLMMDKHMSQLPPFLVENGGVNSGFMIAQVTAAALTSENKGLAFPASVDSIPTSANQEDHVSMAPRAGKRLWEMAENVRNILAIEWLAACQGLDLRKGLRTSAILEPARQLLRQHVTYYDKDRFFAPDIEVASQLIAQRHMNELMPAKLLPSL,not soluble
3,MVKGDITTAFIAEEYPDGFQGAVLDEPTLRRVAAAAAAMNRVAEIRRTRISGTMNNHERHVGVDWVVALQGESYHVSIAADREGSTVSFSDGSSLRVTSDWTPGQPLEHHHHHH,not soluble
4,MGSDKIHHHHHHMIHEQDVQKLLNYITSHFGVDPERWFHPEGYQSIALAILDSIYSTGNRYTGVLNLVNRYCGLRANEGSHPEADTATDLIETFYRWGGVDEFVLKTNNRWRTSSKIHAPYKAYAALEAAKVLAGHSIESISDVVGRFDSRESREHSDIAREWLMITGQSSALTWSYFLMLVGVPGVKADRMIVRFVTHVLERPKEISRHEASRLIEEVADIMCVNYIYLDHTIWRFQSGRPYLQEDSSPFE,not soluble
5,MSLTADPPACTVPAAGVSSTHKLVNGGAEKIVFKIKSSNNNEYRIAPVFGFVDPSGSKDVVITRTAGAPKEDKLVVHFASAPADATDAQAAFVAVAPAGTVTIPMSATA,soluble
6,MGSDKIHHHHHHMKPRKQDEKILSDQYSYFEPIISDSCDIKFDGDKRRIGSIFISHEEICFIRKEEDYIFKISLSDVVDYNTVVTIWKNQASLTLNDNRKITFYFVTNSPLTGFISILKTYMQLSRNKETIIPDDNLLINDDDEQTKVEIFDVVGLNYEGRRKELKKLIKKMKTNDAFFFLYSDLKGNELKEELLYEDKVYEIPDYEVIPGVFLQKEPDNPYDENAIKVMISNEYSEFHVGYVPREYASRLVNYIEDTVSCNAYINGGKYKTLDYLEEKIVTKESDYGLRIHVEYKV,not soluble
7,MGSDKIHHHHHHMKLLVTGATGKLGTKIVEHLLTKIEAENVIVSVRDPKKANELASRGIEVRHGDFDEPDTLQQAFAGVDRLLIISTDGEEATRIRQHTAAVEAAKAAGVGLIAYTSIANAEASQNFLARTHQVTEQLIRETGIPFLFFRNNWYLENEQSTIDAVRAGQDWLTSAGNGTVGWALQEDYAEAIATVLVDPKPTKSIYELSGPLHTQQDIAEALGQVLGRPVQVKQVDSATYTAIMQQAGVPEFLLPMLQAIQEGIAAGTLAVESQDFEHILDRPPVSLEDGLRQLVQR,not soluble
8,KFSPEFGIFMNIGASKIFTKTEVDQNEYSYLVDFRTIKGDIFLDFEAIFQLGVKNNINNNIVTGLTSLLEIGYSPYIISTKYEGESDSIYYIFTDRVILYSLVLGALEKIVFNNFSIGIGAGVLFPISGFAASNHPRNIISVMPSENLSIISPYNSKLDYAYIKKLFKVPVAPYIKITAEYAFKPYKIDNAEMDFVLGAYLSYNFGMQYDVSVLNSNIPKQGDNGLIIPGISSKDMFYKYDYSNLDFGVTFGVSFRALE,not soluble
9,MGSDKIHHHHHHMLHGKVLVAQGGGPTAVINQSMVGAVLESRKFRNVDLVYGAHHGVRGIVNEDFLDLTQETSHNLEMVAQTPSSGLGSTRDKPDLKYCHEIFEVLKAHGIAYFFYIGGNDSSDTVRIVSEEARKAGYPLRCIHIPKTIDNDLVLNDHTPGFPSAARFVAQAFMGVNLDNAALRGIYLAVVMGRHAGFLTAASALGKKFPEDGPHLIYIPERTFRVDSFLTDVKATYDKYGRCVVALSEGIHDEDGAPIITKLSKATEKDAHGNIQLSGTGALSDLLCEEIKGKLGIKRVRGDTFGYLQRSFIGCVSDVDQREAREVGEKAVQFAMWGDQDGSVTIQRTGFYSVDYKLLPLAAVAGKTRVMEDHFIAESGTDVTDSFRMYLRPLLGSGMPDAFRLRLNSVPRILKK,not soluble
10,MGSDKIHHHHHHMSGKLTVITGPMYSGKTTELLSFVEIYKLGKKKVAVFKPKIDSRYHSTMIVSHSGNGVEAHVIERPEEMRKYIEEDTRGVFIDEVQFFNPSLFEVVKDLLDRGIDVFCAGLDLTHKQNPFETTALLLSLADTVIKKKAVCHRCGEYNATLTLKVAGGEEEIDVGGQEKYIAVCRDCYNTLKKRV,not soluble
11,MIIYTTPTALILEEQGERVEFDRRNGKVLEKPEESLEILDQDVVLCGNVEFLIGKISFDEQHFLFFVVDSSVVACYRGTSAESSHSIRRIERVIAINVKSDGSVIKSQITPGSGTKLKQGTEKIMKFFAEKVTKAEPRPALLDDVLKLFNDSKDFYFCRSRDVTISSQKYFEKREAHTSEDSFFWNKRMVGNLGEAKISDKFTCPIMQGYVATSQLEITDQINAYLTITIISRRSTRRAGARYLRRGIDEASNVANFVETELILNIFEHELSFVQCRGSIPVFWSQRGFKYRPPLIINRSVEETHGVFTEHFKRLKAHYDTPLVAVSLVDQRGRELPLAQRFLEHCVKADDNDVTFFSFDLHQHCRGLNFQKLQTLISSMEETLKTIGFCWVDKTGEVVQSQKGVVRTNCIDCLDRTNLVQGQISLFVVLQQAQRLGIFGPLCEPPEVLVQTMQTMWADNGDVISTQYAGTAALKGDVTRNGERKLMGVMKDGYNSASRYYLTHTKDAQRQKAINIVTGQTEADENAEEEENEKEEEENISRMVTETIQFLVPTQQTVIAGWGLINAFQSSDEIDTVVILTRSNLYIVTYEIDGEKMTDVQIVALEDINTIQTGTSGNNRQCARLETLEGVFIWRPSTVRLFNNTAIRLKSLEEANEYISSVAEQIQVGRNMLTGAEGSVVPVAKITIPQMSVHRKSMAAMGALFGKIKRVGKPSSLSKSASTISTAQLPETDGNESDASQKSDHLMTKILKMSQFKSDSPQPEPFSSLLPAISECQTKISLL,not soluble
12,MGSDKIHHHHHHMLYQLHEMQRAFLRPLAAFTDASSQLFTHPYSPLAYMPMSRQLAAGCELVHRIGKEYQKPAWNLPATEIQGKRVAVIEAVVLDKPFCRLVHFQRDVRRTAGRADPRVLLVAPLSGHHATLLRDTVRALLPAHDVYVTDWVDARMVPQDAGPFHLDDYVRYIQAFLRHLGPDTHVISVCQPTVPVLAAISLMASANDPCQPRSMVMMGGPIDPRESPTQVNRLATTKPYAWFESQLIHAVPAPYPGAGRRVYPGFLQHAGFMAMNPDRHLKSHYDFYLDLLRGDDGDAEAHRRFYDEYNAVLDMPAEFYLDTIRTVFQEWLPGGTWEIDGQLVRPADIRKTSLLTVEGELDDISGQGQTRAAIKLCSGIPAARKSHYTAVGCGHYGIFSGRRWRELICPKIAAFIRQS,not soluble
13,MDYCCVGRNNNDSVPSEGTLLRVKTLMKMANHPRPGDIIQESLDELNVSLREFARAMEIAPSTASRLLTGKAALTPEMAIKLSVVIGSSPQMWLNLQNAWSLAEAEKTVDVSRLRRLVTQ,soluble
14,MGSDKIHHHHHHMIAVLRINHRPFRDKRITTHVALTARAFGASSILVDEKDETLEQTINKVVENFGGNFFIKSGVDWKREFRNFKGIRVHLTMYGRPLEDVVKEIRESKKDVMILVGSEKVPFEAYEIADYNVSVTNQPISEVSALAIFLDRFYDGEELNWRFTGKINVYPSERGKKVKIIPDEQGCLDLLYKYGASDYLINHVKSVKELAVAIAKKTNADINLVTAGALLHDIGRTQVQGITHAVVGADILRREGIDDRVVSIVEKHIGAGIQSEEAVKLGLPPDNYVPETIEEMIVAHADNLFAGDKRLKLQQVVDNYRKKGLEDAAERIAKLHKFLSTVIGQDMDEI,not soluble
15,ELLKSGKAKDRFEGEENAPVTIVEYASLTCVHCAHFYNDVLPQIRKKYIKTGKVKLIFRDFAFDSRATAGFMLARCAPEDRYFPLIEVLFQKQSEWVWARDAVTPLKKIGLMAGFTDESFNACLKNQSILDEVNASFERGKELGVNATPTFFINGNKYEGAMSVEAFFSVIDSFLKN,not soluble
16,MSLSRLPVIVGFGGYNAAGRSSFHHGFRRMVIESMDPQARQETLAGLAVMMKLVKAEGGRYLAEDGTPLSPEDIERRYAERIFASTLVRRIEPQYLDPDAVHWHKVLEATPAEGQALTFKASPKQLPEPLPGNWSVTPAADGEVLVSIHERCEFKVDSYRPLTVKSAGQLPTGFEPGELYNSRFHPRGLQMSVVAATDAIRSTGIDWQTIVDNVQPDEIAVFSGSIMSQLDDNGFGGLMQSRLKGHRVSAKQLPLGFNSMPTDFINAYVLGSVGMTGSITGACATFLYNLQKGIDVITSGQARVVIVGNSEAPILPECIEGYSAMGALATEEGLRLIEGRDEVDFRRASRPFGENCGFTLAESSQYVVLMDDELALRLGADIHGAVTDVFINADGFKKSISAPGPGNYLTVAKAVASAVQIVGLDTVRHASFVHAHGSSTPANRVTESEILDRVASAFGIDGWPVTAVKAYVGHSLATASADQLISALGTFKYGILPGIKTIDKVADDVHQQRLSISNRDVRQDKPLEVCFINSKGFGGNNASGVVLSPRIAEKMLRRRHGEAAFAAYVEKREQTRGAARAYDQRALQGDLEIIYNFGQDLIDEQAIEVSAEQVTVPGFSQPLVYKKDARFSDMLDEGHHHHHH,soluble
17,MGSDKIHHHHHHLVGSGGTGAPPPRSSPMTTLYVTQPGSVVRSEGGSLTVWVETEADDPGPNDSPVRRKRLASVEPHRLESLVLLGFTTITANAMRLCMANKIAVSLLDGGGGLAARVVPPEARSADLRLHQYALHLDPPERLIRARAVVTAKLRNAAAVLRGIRSNQASSAALASAITQTEASAEAAAAAVSAESLLGIEGNGAHQYFAGLRTAFVGGIPFLGRAQRPPPDPANSLLSFGYVLLGNRLTGLLEARGVDPCLGFFHDLRPGRPSLALDLLEELRHPVVDRLALRICNLRKIQPQHFEPDAERPGGVKLTVDGRKIFLEEWEGHLARPLREPGVAAEHRLDVHRLLQRQVDRLVSDLRGGEPYRPFRFGTSRPG,not soluble
18,LTNRGLKQVGWYLPAAQKTKKTAIVVHGFTNDKEDMKPYAMLFHDLGYNVLMPDNEAHGESEGNLIGYGWNDRLNVMAWTDQLIKENPESQITLFGLSMGAATVMMASGERLPAQVTSLIEDCGYASVWDELKFQAKAMYNLPAFPLLYEVSALSKIRAGFSYGEASSVKQLAKNKRPTLFIHGDKDDFVPTKMVYDNYKATKGPKEILIVKGAKHAKSFETNPEQYQKKIAAFLKKVEK,not soluble

# — the DeepSol protein solubility set
